Results from the nanobody polyreactivity screen of Harvey et al. (2022).

Assay: yeast display, Sf9 membrane polyspecificity reagent, FACS + sequencing; frameworks hold sequencing errors
Summary of the method: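 Nanobodies from a synthetic yeast display library (Saccharomyces cerevisiae BJ5465), induced 36–48 hours with galactose, were stained 1 hour at 4 °C with 10% biotinylated, detergent-solubilized Sf9 membrane reagent, enriched on streptavidin microbeads, then FACS-sorted. Anti-HA (expression) and streptavidin (reagent binding) fluorescence set low and high (top ~1%) gates. Polyreactivity labels come from the gate of origin. Genes were colony-PCR amplified, MiSeq 2 × 250 sequenced and filtered by CDR length.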

| Sequence | polyreactivity (PSR sort gate) |
| --- | --- |
| QVQLVESGGGLVQAGGSLRLSCAASGRIFPENAMGWYRQAPGKERELVAAINNNDGDTYYADSVKGRFTISRDNAKNTVYLQMNSLKPEDTAVYYCAADEAYWLSYVWGIGYDYWGQGTQVTVSS | low polyreactivity |
| QVQLVESGGGLVQAGGSLRLSCAASGSIFHKYTMGWYRQAPGKERELVAAITRSGGSTYYADSVNGRFTISRDNAKNTVYLQMNSLKAEDTAVYYCNKRYIPWAYDYWGQGTKVTVSS | high polyreactivity |
| QVQLVESGGGLVQAGGSLRLSCAASGITFWPYAMGWYRQAPGKERELVAAISFIDGSTSYADSVKGRFTISRDNAKNTVYLQMNSLKPEDTAVYYCAAVIPGPSIWLYYYWGQGTQVTVSS | low polyreactivity |
| QVQLVESGGGLVQAGGSLRLSCAASGFTFYDYAMGWYRQAPGKERELVAAISSGTSTYYADSVKGRFTISRDNAKNTVYLQMNSLKPEDTAVYYCAAAGNRPWSITPVRKRYGYNYWGQGTQVTVSS | high polyreactivity |
| QVQLVESGGGLVQAGGSLRLSCAASGFIYVYNAMGWYRKAPGKEREFVAGISRSGGNTYYADSVKGRFTISRDNAKNTVYLQMNSLKPEDTAVYYCAVVNRRFGFPNVALRSNYGDYWGQGTQVTVSS | low polyreactivity |
| QVQLVESGGGLVQAGGSLRLSCAASGSTFDVYAMGWYRQAPGKERELVAAITWDGDRTYYADSVKGRFTISRDNAKNTVYLQMNSLKPEDTAVYYCNVDTYVEYPHDYWGQGTQVTVSS | low polyreactivity |
| QVQLVESGGGLVQAGGSLRLSCAASGFIFASYAMGWYRQAPGKERELVAAISWRGGSTYYADSVKGRFTISRDNAKNTVYLQMNSLKPEDTAVYYCKAYVYVGTGRGYDTLDYWGQGTQVTVSS | low polyreactivity |
| QVQLVESGGGLVQAGGSLRLSCAASGSIFFGYAMGWYRPAPGKERELVAAISSDGSTYYADSVKGRFTISRDNAKNTVYLQMNSLKPEDTAVYYCNAEQAIFYWYATVTYDYWGQGTQVTVSS | low polyreactivity |
| QVQLVESGGGLVQARGSLRLSCAASGAIFVVYTMGWYRQAPGKERELVAAITQNGGSSTYYADSVKGSFTISRDNAKNTFYLQMNSLKPDDTAVYYCNVDSFTTTFDYWGQGTQVTVSS | low polyreactivity |
| QVQLVESGGGLVQAGGSLRLSCAASGSTFGGNAMGWYRPAPGKERELVAGITSSGTSTYYADSVKGRFTISRDNAKNTVYLQMNSLKPEDTAVYYCATDEADESYGFELFDYWGQGTQVTVSS | low polyreactivity |
| QVQLVESGGGLVQAGGSLRLSCAASGSIIYRYAMGWYRQAPGKEMELVAAISTAGSTNYADSVKGRFTISRDNAKNTVYLLMNCLKPEDTAVYYCAAKSYRGRTQRSYGYWGQGTQVSVSS | low polyreactivity |
| QGQLVESGGGLVQAGGSLRLSSAASGSTFAHYAMGWYRQAPGKERELVAAISRGGGSTYYADSVKGRFTISRDNAKNTVYVQMNSLKPEDTAVYYCAADPRYRVTLGFDYWGQGTQVTVSS | high polyreactivity |
| QVQLVESGGGLVQAGASLRLSCAASGSTFHSYAMGWYRQAPGKERELVAAISTSGGSTYYADSVKGRFTISRDNAKNTVYLQMNSLKPEDTAVYYCAAYSISSRMNYWGQGTQVTVSS | high polyreactivity |
| QVQLVESGGGLVQAGGSLRLSCAASGSTSVDYTMGWYRQAPGKERELVAAIDYNGDSTYYADSVKGRFTISRDNAKNTVYLQMNSLKPEDTAVYYCAADYLSFVVVKLYGYWGQGTQVTVSS | low polyreactivity |
| QVQLVETGGGLVQAGGSLRLSCAASGIFTYTMGWYRQAPRKERELVAAITNGSTYDADSVKGRFTISRDNAKNTVYLQMNSLKPEDTEVYYCAADRSSAYRWRSAGYYKYDYWGQGTHVTVSS | low polyreactivity |
| QVQLVESGGGLVHAGGSLRLSCAASGSISTRNAMGWYRQAPGKDRELVASITSGGSTYYADSVKGRFTISRDNAKNTVYLQMNSLKPEDTAVYYCAARRRRPWGYGYGYWGQGTQVTVSS | high polyreactivity |
| QVQLVESGGGLVQAGGSLRLSCAASGRTFLGYTMGWYRQAPGKESEFVAAITFSGDSTYYADSVKGRFTISRDNAKNTVYLQMNSLKPEDTAVYYCAARIKYYTYLFYYWGQGTQVTVSS | high polyreactivity |
| QVQLVASGGGLVQAGGSLLLSCAASGSIFDYNAMGWYRKAPGKERELVAAISSSGGSTYYADSVKGRFTISRDNAKNTVYLQMNSLKPEDTAVYYCNNVSRYILGSGYGYWGQGNQVTVSS | high polyreactivity |
| QVQLVESGGGLVQAGGSLRLSCAASGSIIAINAMGWYRQAPGKERDLVAAISWNTGTTYYADSVKGRFTISRDNAKNTVYLQMNSLKPEDTAVYYCAADLWRWESLYKIWLPQYDYWGQGTQVTVSS | high polyreactivity |
| QVQLVESGGGLDQAGGSLRLSCAASGSIFLRYAMGWYRQAPGKERELVAAITTGGGSTYYADSVKGRFTISRDNAKNTVYLQMNSLKPEDTAVYYCAKRAQYHWRGRDDYSYYYWGQGTQVTVSS | low polyreactivity |

| Sequence | polyreactivity (PSR sort gate) |
| --- | --- |
| QVQLVESGGGLVQAGGSLRLSCAASGSIFFSNAMGGYRQAPGKERELVAAITSTGGSTYYADSVKGRFTISRDNAKNTGYLQMNSLKPEDTAVYYCAAASRRGYYYWGQGTQVTVSS | high polyreactivity |
| QVQLVESGGGLVQAGGSLRLSCAASGSIFYGYAMGWYRQAPGKERELVAAISYSGDRTYYADSVKGRFTISRDNAKNTVYLQMNSLKPEDTAVYYCAARKHGGTVRGRRDYWGQGTQVTVSS | high polyreactivity |
| QVQLVESGGGLVQAGGSLRLSCAASGRIFTTYVMGWYRQAPGKERELVAAISARGSTYYADSVKGRFTISRDNAKNTVYLEMNSLKPEDTAVYYCAAGHRLPVYYGYPRATYNYWGQGTQVTVSS | low polyreactivity |
| QVQLVESGGGLVQAGGSLRLSCAASGRIYGYYGMGWYRQAPGKERELVAAITYRGGSTYYADSVKGRFTISRDNAKNTVYLQMNSLKPEDTAVYYCAADGYSHYRYLYDYWGQGTQVTVSS | low polyreactivity |
| QVQLVESGGGLVQAGGSLRLICAASGIIFVGYAMGWYRQAPGKERELVAAIDGTGDSTYYADSVKGRFTISRDNAKNTVYLQMNSLKPEDTAVYYCDAEYDYRWWYGYDYWGQATQVTVSS | high polyreactivity |
| QVQLVESGGGLVQAGGSLRLSCAASGRIFTVNTMGWYREAPGKERELVASIRGGGSTNYADSVKGRFTISRDNAKNTVYLQMNSLKPEDTAVYYCAAGTSKPTPIYGYWGQGTQVPVSS | low polyreactivity |
| QVQLVESGGGLVQAGGSLRLSCAASGRTFFYYAMGWYRQAPGKERELVAAITTDGGTTSYADSVKGRFTISRDNAKNTVSLQMNSLKPEETAVYYCAADASYQYYPYDYWGQGTQVTVSS | low polyreactivity |
| QVQLVESGGGLVQAGGRLRLSCAASGITFSYYAMGRYRQAPGKERELVAAISSGGRTYYADSVKGRFTISRDNAKNTVYLQMNSLKQEDTAVYYCAASFLVTSREYDYWGQGTQVTVSS | high polyreactivity |
| QVQLQESGGGLVQASGSIFHEPNMGWYRQAPGKERELVAGISSGANTYYADSVKGRFTISRDNAKNTVYLQMNSLKPEDTAVYHCAVVVHLYTDLRYWGQDTQVTVSS | high polyreactivity |
| QVQLVESGGGLVQAGGSLRLSCAASGSILAYYAMGWYRQAPGKERELVADITSSGGITYYADSVKGRFTISRDNAKNTVYLQMNSLKPEDTAVYYCNADSWAIGGGSYPYDYWGQGTQVTVSS | low polyreactivity |
| QVQLVESVGGLVQEGGSLRLSSAATGYTFDVYAMGWSRQAPGKERELVAAISTRGTRTYYADSEKGRFTISRDNAKNTVYLQMNSLKPEDTAVYYCAAYVYDGETESRFDYWGQGTQVTVSS | high polyreactivity |
| QVQLVESGGGLVQAGGSLRLSCAASGSTYGYTMGWYRQAPGKERELVADITSGGTTNYADSVKGRFTISRDNAKNTVYLQMNSLKPEDTAVYYCATRGAEWGWLGSIFNPFDYWGQGTQVTVSS | low polyreactivity |
| QVQLVESGGGLVQAGGSLRLSCAASGSTFVYNTMGWYRQAPGKERELVAAISKSGTNTFYADSVKGRFTISRDNAKNTVYLQMNSLKPEDTAVYYCAVRSVPRWFTELDYWGQGTQVTVSS | low polyreactivity |
| QVQLVESGGGLVQAGGGLRLSCAASGRTIPTYAMGWYRQAPGKERELVATITSAGSTNYADSVKGRFTISRDNAKNTVYLQMNSLKPEDTAVYYCAARRRLAWGQGTQVTVSS | high polyreactivity |
| QVQLVESGVGLVQAGGSLRLSSADSGRTSPGNAMGWYRQAPGKETELVAAINVSGGSTYYADSVKGRFTISRDNAKNTVYLQMNSLKPEDTAVYDCATDTGYPYSYDLYDSYYWGQGTQVTVSS | low polyreactivity |
| QVQLVESGGCLVQAGGSLRLSCAASGSTFIINAMGWYIQAPGKERVLVAANTSTGGTNYADSVKGRFTISRDNAKNTVYLQMNSLKPEATAVYYCAARYYQDGYDYWGQGTQGTVSS | high polyreactivity |
| QVQLVESGGGIVQAGGSLRLSCAASGSTFILNAMGWYRQAPGKERALVATISSSDTSTYYADSVKGRFTISRDNAKNTVYLQMNSLKPEDTAVYYCNADDYTTSYLQRVYHYGVEYYYWGQGTQVTVSS | low polyreactivity |
| QVQLVESGGGLVQAGGSLRLICAASGSIFPHYAMGWYRPAPGKERELVAAISRGGSTNYADSVKGRFTISRDNAKNTVYLQMNSLKPEDTAVYYCNALRYYSRFMYAVAYRYDYWGQGTQVTVSS | high polyreactivity |
| QVQLVESGGGLVQAGGSLRLSCAASGRILDINTMGWYRHPPGKERELVAAITWSGVSTYYADSVKGRFTISRDNAKNTVYLQMNSLKPEDTAVYYCAARPYYTWRYLPTKSGDYWGQGTQVTVSS | low polyreactivity |
| QVQLVESGGGLVQAGGSLRLSCAASGFTFTANAMGWYRQAPGKERELVAAITRNGGRTYYADSVKGRFTLSRDNAKNNVYLQMNSLKPEDTAVYYCAKPNSQRIHDDYDYWGQGTQVTVSS | high polyreactivity |
